The DeepSol protein solubility set

Experiment: soluble on expression in E. coli; label from the status in PepcDB or PDB records

| Sequence | soluble on expression in E. coli |
| --- | --- |
| MAKKTSSLLSRRRTRRPGEPPLDLGSIPWLGYALDFGKDAASFLTRMKEKHGDIFTILVGGRYVTVLLDPHSYDAVVWEPRTRLDFHAYAIFLMERIFDVQLPHYSPSDEKARMKLTLLHRELQALTEAMYTNLHAVLLGDATEAGSGWHEMGLLDFSYSFLLRAGYLTLYGIEALPRTHESQAQDRVHSADVFHTFRQLDRLLPKLARGSLSVGDKDHMCSVKSRLWKLLSPARLARRAHRSKWLESYLLHLEEMGVSEEMQARALVLQLWATQGNMGPAAFWLLLFLLKNPEALAAVRGELESILWQAEQPVSQTTTLPQKVLDSTPVLDSVLSESLRLTAAPFITREVVVDLAMPMADGREFNLRRGDRLLLFPFLSPQRDPEIYTDPEVFKYNRFLNPDGSEKKDFYKDGKRLKNYNMPWGAGHNHCLGRSYAVNSIKQFVFLVLVHLDLELINADVEIPEFDLSRYGFGLMQPEHDVPVRYRIRPHHHH | soluble |
| MAKKVAIYTRVSTTNQAEEGFSIDEQIDRLTKYAEAMGWQVSDTYTDAGFSGAKLERPAMQRLINDIENKAFDTVLVYKLDRLSRSVRDTLYLVKDVFTKNKIDFISLNESIDTSSAMGSLFLTILSAINEFERELEY | soluble |
| MAKNTSSNAFRKIDVDQYNEDNFREDDGVESAAAGPDESEITTLLTQGKSVEALLSALQNAPLRCKNQNVKDHALNITLRVLLSIKSTQMDQAIDTLDQNDLIDVLMKYIYRGFEIPSEGSSGHLLQWHEKAFAKGGVGCIVRVLSDTNRALEHHHHHH | soluble |
| MAKTGMYVGLDIGTTSVKVVVAEYIEGQMNIIGVGNAKSDGLNRGIVVDIDQTVQAIQRAVRQAEEKAGIQIKSVNVGLPANLLEVESCQGMIAVSSESKEITDEDVRNVASAALVRSTPPERQIVAILPQDFTVDGFEGIKDPRGMLGVRMEMFGVVYTGPKTIIHNIRKCVEKAGLGINELVITPLALTETILTDGEKDFGTIVIDMGGGQTTTSVIHDKQLKFTHVNQEGGEFITKDISIVLNTSFNNAEALKINYGDAYPERTSANEEFPVDVIGKSEPVRVDERYLSEIIEARVEQILRKSKEVLDEIDAFELPGGVVLTGGAASMPGIVDLAQEIFEANVKLYVPNHMGLRNPVFANVISIVEYSAQLNDIYHIAKYAIPGEKSKPAQSVAVQQEVRYDTYAEQPQEEYEEFNERESGEKVTGKIKDFFSNIFD | not soluble |
| MAKTIAYDEEARRGLERGLNALADAVKVTLGPKGRNVVLEKKWGAPTITNDGVSIAKEIELEDPYEKIGAELVKEVAKKTDDVAGDGTTTATVLAQALVREGLRNVAAGANPLGLKRGIEKAVEKVTETLLKGAKEVETKEQIAATAAISAGDQSIGDLIAEAMDKVGNEGVITVEESNTFGLQLELTEGMRFDKGYISGYFVTDPERQEAVLEDPYILLVSSKVSTVKDLLPLLEKVIGAGKPLLIIAEDVEGEALSTLVVNKIRGTFKSVAVKAPGFGDRRKAMLQDMAILTGGQVISEEVGLTLENADLSLLGKARKVVVTKDETTIVEGAGDTDAIAGRVAQIRQEIENSDSDYDREKLQERLAKLAGGVAVIKAGAATEVELKERKHRIEDAVRNAKAAVEEGIVAGGGVTLLQAAPTLDELKLEGDEATGANIVKVALEAPLKQIAFNSGLEPGVVAEKVRNLPAGHGLNAQTGVYEDLLAAGVADPVKVTRSALQNAASIAGLFLTTEAVVADKPEKEKASVPGGGDMGGMDF | soluble |
| MAKVCYFTGRKTSSGNNRSHAMNSTKRTVKPNLQKVRVLIDGKPKKVWVSTRALKSGKIERVLEHHHHHH | not soluble |
| MAKVLVLNASYEPLNITHWQRAVVLLLKDKAEALENNGKLIYANFPLPSVIRLRQYIKVPYKEIPLTRRNVLERDRHTCQYCNYKGEQLTLDHVIPRSRGGGDSWENLVTACVRCNIKKGNRTPREAQMSLNYTPRRPYSSLLFEIIKHTRNDRNHEWRKYVIGILEHHHHHH | not soluble |
| MAKVYGSLIDNETRCTHYYSSLDVIAIKFKCCNKYYPCYKCHNEHVSHTIERWAENEFDEKAIMCGVCKHEMRIRDYMMVEMCPRCKAHFNSRCKFHYHLYFEVLEHHHHHH | not soluble |
